B3: human DISC1 fragment comprising residues 691-836 (C region) (domain or fragment, UniProt Q9NRI5 691-836, looked up)
chain: WEADLEACRLLIQSLQLQEARGSLSVEDERQMDDLEGAAPPIPPRLHSEDKRKTPLKVLEEWKTHLIPSLHCAGGEQKEESYILSAELGEKCEDIGKKLLYLEDQLHTAIHSHDEDLIQSLRRELQMVKETLQAMILQLQPAKEAG
notes: also called DISC1 C region; source: E. coli BL21 AI (pESPRIT002), purified (Ni2+-NTA, SEC); not shown: His tag, N-terminal, kept

Assay [1] addresses B3. In words: SPR; Biacore T200, 25°C, PBS/0.05% Tween-20 pH 7.4; DISC1^691-836 amine-coupled to a CM5 chip (250 RU); VHH B5 19 nM to 1.5 uM injected in a single cycle; response levels against concentration fitted with Langmuir 1:1 model. As to conditions: both partners purified. On the technique in general: Surface plasmon resonance follows binding to a sensor surface in real time, without labels.

Assay [2] concerns the target B3. In words: SEC + SPR; stoichiometry of the DISC1^691-836 - VHH B5 complex as supported by the SEC and SPR results. Conditions: both partners purified.
In assay [3] the target is T1, anti-DISC1 human Fc-VHH antibody (VHH B5 fused to human Fc) (Lama glama).
T1 construct: as the VHH of m1; also called VHH-Fc; VHH–Fc antibody; not shown: Fc (human), C-terminal, kept
In words: far-Western, overlay or dot blot; western blot of purified His-tagged DISC1 truncation constructs probed with the VHH-Fc (conditioned medium) and an anti-human secondary antibody. As to conditions: one partner purified. Background: In western blotting, separated proteins are transferred to a membrane and probed.

In assay [4] the target is T1, anti-DISC1 human Fc-VHH antibody (VHH …). In words: far-Western, overlay or dot blot; western blot of lysates of NLF neuroblastoma cells transfected with human DISC1 or mouse Disc1, probed with the VHH-Fc (conditioned medium). Conditions: partners not purified.

A word on the Kd: it is a measure of binding affinity in units of concentration. The low end stands for a tighter complex, the high end for a looser complex. Broadly, the stoichiometry N is a count of units in the complex or per binding partner.

B1: anti-DISC1 VHH B5 antibody (VHH)
VHH: QVKLEESGGGLVQAGGSLRLSCAASGTLFSISVMGWYRQAPGMQRELVGSITDGGSTIYGDSVKGRFAISKDNAKRTIYLQMNSLKPEDTAVYYCNYRRLTSNYWGQGTQVTVSS
notes: Selected by phage display from an immunised llama; the homology model holds residues 1-120; PDB 3EZJ chain B is only the template of the homology model, not this VHH; also called clone B5; VHH domain B5; source: E. coli BL21 Rosetta (pET-22b, periplasm), purified (Ni2+-NTA, SEC)
Turning to B1, the Kd in assay [1] came to 139 nM. In assay [2], the “stoichiometry N” value was found to be 1.

B2: human DISC1 fragment 598-715 (domain or fragment, UniProt Q9NRI5 598-715, looked up)
chain: GNHFWTAKDLTEEIRSLTSEREGLEGLLSKLLVLSSRNVKKLGSVKEDYNRLRREVEHQETAYETSVKENTMKYMETLKNKLCSCKCPLLGKVWEADLEACRLLIQSLQLQEARGSLS
notes: same vector as m3; source: E. coli BL21 AI (pESPRIT002), purified (Ni2+-NTA, SEC)
As to B2, in assay [3], the binding result is recorded as “binds”.

As to B3, in assay [3], the binding result is “binds”.

B4: human DISC1 fragment 480-721 (domain or fragment, UniProt Q9NRI5 480-721, looked up)
chain: EAKDQQLRREIEEQEQQLQWQGCDLTPLVGQLSLGQLQEVSKALQDTLASAGQIPFHAEPPETIRSLQERIKSLNLSLKEITTKVCMSEKFCSTLRKKVNDIETQLPALLEAKMHAISGNHFWTAKDLTEEIRSLTSEREGLEGLLSKLLVLSSRNVKKLGSVKEDYNRLRREVEHQETAYETSVKENTMKYMETLKNKLCSCKCPLLGKVWEADLEACRLLIQSLQLQEARGSLSVEDERQ
notes: Disrupted-in-Schizophrenia 1 (DISC1), human, UniProtKB Q9NRI5, residues 480-721; same vector as m3; also called DISC1^480-721; source: E. coli BL21 AI (pESPRIT002), purified (Ni2+-NTA, SEC)
B4: in assay [3], the binding result was “binds”.

B5: full length human DISC1 (natural protein, UniProt Q9NRI5 1-854, looked up)
chain: MPGGGPQGAPAAAGGGGVSHRAGSRDCLPPAACFRRRRLARRPGYMRSSTGPGIGFLSPAVGTLFRFPGGVSGEESHHSESRARQCGLDSRGLLVRSPVSKSAAAPTVTSVRGTSAHFGIQLRGGTRLPDRLSWPCGPGSAGWQQEFAAMDSSETLDASWEAACSDGARRVRAAGSLPSAELSSNSCSPGCGPEVPPTPPGSHSAFTSSFSFIRLSLGSAGERGEAEGCPPSREAESHCQSPQEMGAKAASLDGPHEDPRCLSRPFSLLATRVSADLAQAARNSSRPERDMHSLPDMDPGSSSSLDPSLAGCGGDGSSGSGDAHSWDTLLRKWEPVLRDCLLRNRRQMEVISLRLKLQKLQEDAVENDDYDKAETLQQRLEDLEQEKISLHFQLPSRQPALSSFLGHLAAQVQAALRRGATQQASGDDTHTPLRMEPRLLEPTAQDSLHVSITRRDWLLQEKQQLQKEIEALQARMFVLEAKDQQLRREIEEQEQQLQWQGCDLTPLVGQLSLGQLQEVSKALQDTLASAGQIPFHAEPPETIRSLQERIKSLNLSLKEITTKVCMSEKFCSTLRKKVNDIETQLPALLEAKMHAISGNHFWTAKDLTEEIRSLTSEREGLEGLLSKLLVLSSRNVKKLGSVKEDYNRLRREVEHQETAYETSVKENTMKYMETLKNKLCSCKCPLLGKVWEADLEACRLLIQSLQLQEARGSLSVEDERQMDDLEGAAPPIPPRLHSEDKRKTPLKVLEEWKTHLIPSLHCAGGEQKEESYILSAELGEKCEDIGKKLLYLEDQLHTAIHSHDEDLIQSLRRELQMVKETLQAMILQLQPAKEAGEREAAASCMTAGVHEAQA
notes: Disrupted-in-Schizophrenia 1 (DISC1), human, UniProtKB Q9NRI5; source: NLF human neuroblastoma cells, transfected, in lysate
Regarding B5, the binding result in assay [4] is given as “binds”.
